# B1: CHK2 promoter ZFP-5475 target site (dsDNA)
# DNA 1: ACCCGGGTTCCCCTCGGG
# DNA 2: CCCGAGGGGAACCCGGGT
# Target: HA-ZFP-5475-KOX1 (Artificial)
# Test: ChIP with anti-HA in HEK293 cells, relative to GAPDH control; GFP-KOX and non-specific ZFP TF gave no significant enrichment
# Experimental: FIG. 2A is a graph depicting repression of CHK2 expression by ZFP-5475 in cultured cells. Black bars show mRNA levels upon administration of 250 ng of plasmid. Gray bars shown mRNA levels upon administration of 62.5 ng of plasmid and the white bars show mRNA levels upon administration of 15 ng of plasmid. HEK293 cells transfected with the plasmids indicated were assayed for CHK2 mRNA by quantitative RT-PCR (TaqMan) after 72 hrs. The CHK2 mRNA levels were normalized relative to an internal control of GAPDH mRNA, and are expressed as this ratio. Charts represent data from a minimum of two independent experiments, with means and standard deviations shown. Transfection efficiency was assessed in each independent experiment via the use of a GFP expression plasmid control, in all experiments an apparent efficiency of 80-90% GFP positive cells was observed. FIG. 2B is a graph depicting binding of ZFP-5475 to its intended target site within the CHK2 promoter in vivo. […] Enrichment was quantified by RT-PCR Results are expressed as the fold-increase of the ratio to the GAPDH control relative to the results for non-transfected cells, the value of which is arbitrarily set to 1. The same samples were analyzed with primers specific for the p16 locus as a second internal control (open bars). […]
binder,measurement,value
B1,binding signal,~65 fold enrichment
